Assay results: paper PMC4453530

Experiments:
[1] = biological target: EPRS purified recombinant (UniProt P07814 1-1512); assay: EMSA
DDK/Myc tag peptide = biological target: T1, DDK/Myc tag peptide; assay: EMSA
T1 chain: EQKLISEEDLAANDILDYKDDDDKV

Sequence of EPRS purified recombinant (P07814 whole entry): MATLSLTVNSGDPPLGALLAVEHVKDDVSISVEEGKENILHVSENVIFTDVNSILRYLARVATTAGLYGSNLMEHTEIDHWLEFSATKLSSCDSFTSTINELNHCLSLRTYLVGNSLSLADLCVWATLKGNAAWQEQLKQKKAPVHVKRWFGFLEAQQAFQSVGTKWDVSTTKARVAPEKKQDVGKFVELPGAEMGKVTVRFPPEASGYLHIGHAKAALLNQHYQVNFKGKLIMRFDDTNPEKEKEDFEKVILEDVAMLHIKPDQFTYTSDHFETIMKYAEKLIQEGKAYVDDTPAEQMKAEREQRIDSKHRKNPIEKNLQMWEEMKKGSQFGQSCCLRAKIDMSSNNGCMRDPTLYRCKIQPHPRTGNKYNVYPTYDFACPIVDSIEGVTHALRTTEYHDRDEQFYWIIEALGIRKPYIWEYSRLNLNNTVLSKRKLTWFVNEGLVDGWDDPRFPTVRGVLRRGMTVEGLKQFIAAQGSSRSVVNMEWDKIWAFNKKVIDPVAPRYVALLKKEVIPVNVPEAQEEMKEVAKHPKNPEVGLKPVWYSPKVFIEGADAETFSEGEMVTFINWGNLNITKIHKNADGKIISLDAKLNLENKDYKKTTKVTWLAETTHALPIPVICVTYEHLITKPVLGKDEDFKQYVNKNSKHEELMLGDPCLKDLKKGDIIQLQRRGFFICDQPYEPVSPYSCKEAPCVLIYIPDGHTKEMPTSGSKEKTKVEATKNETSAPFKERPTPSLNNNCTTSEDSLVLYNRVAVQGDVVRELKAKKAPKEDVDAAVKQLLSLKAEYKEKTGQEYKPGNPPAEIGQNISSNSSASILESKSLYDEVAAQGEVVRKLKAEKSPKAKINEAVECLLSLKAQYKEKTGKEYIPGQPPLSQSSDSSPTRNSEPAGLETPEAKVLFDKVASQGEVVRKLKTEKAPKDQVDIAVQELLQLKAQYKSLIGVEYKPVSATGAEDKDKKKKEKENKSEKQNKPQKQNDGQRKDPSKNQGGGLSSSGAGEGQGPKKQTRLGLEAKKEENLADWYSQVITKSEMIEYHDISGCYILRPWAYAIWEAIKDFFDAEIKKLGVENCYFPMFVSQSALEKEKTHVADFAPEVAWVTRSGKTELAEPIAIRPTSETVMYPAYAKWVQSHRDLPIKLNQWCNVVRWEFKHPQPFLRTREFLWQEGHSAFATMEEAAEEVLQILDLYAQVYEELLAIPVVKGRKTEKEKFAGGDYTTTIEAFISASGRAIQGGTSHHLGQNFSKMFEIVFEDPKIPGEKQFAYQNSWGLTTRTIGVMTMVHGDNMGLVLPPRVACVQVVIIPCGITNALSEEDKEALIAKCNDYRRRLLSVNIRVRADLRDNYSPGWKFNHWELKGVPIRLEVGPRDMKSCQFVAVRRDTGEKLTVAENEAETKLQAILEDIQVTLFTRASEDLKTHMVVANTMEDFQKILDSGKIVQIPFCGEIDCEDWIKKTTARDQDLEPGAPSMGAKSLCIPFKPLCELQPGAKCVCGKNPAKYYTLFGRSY

AAUCUUAAAACUGUCAAUGACUUUAAUAUCUU (structured_RNA) [F2.2L (TGEV GAIT-like RNA motif)]: binds [1]; no binding (DDK/Myc tag peptide).
